# According to publication PMC2821021 (Biochemical and biophysical research communications, 2009):
# T1: 1st beta propeller of human LRP5 (human, UniProt O75197 32-338)
# T1 sequence (looked up): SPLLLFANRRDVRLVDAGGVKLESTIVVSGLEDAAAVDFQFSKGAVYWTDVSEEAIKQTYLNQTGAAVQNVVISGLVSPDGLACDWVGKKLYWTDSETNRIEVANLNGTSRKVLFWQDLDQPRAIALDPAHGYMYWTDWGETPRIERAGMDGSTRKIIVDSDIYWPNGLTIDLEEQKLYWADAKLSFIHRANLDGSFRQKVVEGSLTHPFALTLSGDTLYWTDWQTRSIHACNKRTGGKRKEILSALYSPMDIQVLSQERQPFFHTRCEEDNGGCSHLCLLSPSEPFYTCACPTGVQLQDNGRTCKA
# B1: Recombinant insect cell-produced human sclerostin (natural protein, UniProt Q9BQB4 24-213, looked up)
# chain: QGWQAFKNDATEIIPELGEYPEPPPELENNKTMNRAENGGRPPHHPFETKDVSEYSCRELHFTRYVTDGPCRSAKPVTELVCSGQCGPARLLPNAIGRGKWWRPSGPDFRCIPDRYRAQRVQLLCPGGEAPRARKVRLVASCKCKRLTRFHNQSELKDFGTEAARPQKGRKPRPRARSAKANQAELENAY
# Target: T1, 1st beta propeller of human LRP5
# Assay: SPR
binder,measurement,value
B1,binding result,binds
